The values that follow are results of earlier work, collected in PMC10970614.

The target of data set [1] is glycophorin (Homo sapiens) (UniProt P02724).
In data set [2] the target is integrin alpha L cytoplasmic domain (Homo sapiens) (UniProt P20701). Kind of data set: SPR. (SPR reads the build-up and loss of mass on a sensor chip optically.)
For data set [3], the target named is integrin beta 3 cytoplasmic domain (Homo sapiens) (UniProt P05106). Kind of data set: SPR.
The target in data set [4] is integrin beta 2 cytoplasmic domain (Homo sapiens) (UniProt P05107). Kind of data set: SPR.
Data set [5] concerns the target integrin alpha M cytoplasmic domain (Homo sapiens) (UniProt P11215). Kind of data set: SPR.
Data set [6] has as its target integrin alpha X cytoplasmic domain (Homo sapiens) (UniProt P20702). Kind of data set: SPR.

Sequence of LtxA (P16462 whole entry): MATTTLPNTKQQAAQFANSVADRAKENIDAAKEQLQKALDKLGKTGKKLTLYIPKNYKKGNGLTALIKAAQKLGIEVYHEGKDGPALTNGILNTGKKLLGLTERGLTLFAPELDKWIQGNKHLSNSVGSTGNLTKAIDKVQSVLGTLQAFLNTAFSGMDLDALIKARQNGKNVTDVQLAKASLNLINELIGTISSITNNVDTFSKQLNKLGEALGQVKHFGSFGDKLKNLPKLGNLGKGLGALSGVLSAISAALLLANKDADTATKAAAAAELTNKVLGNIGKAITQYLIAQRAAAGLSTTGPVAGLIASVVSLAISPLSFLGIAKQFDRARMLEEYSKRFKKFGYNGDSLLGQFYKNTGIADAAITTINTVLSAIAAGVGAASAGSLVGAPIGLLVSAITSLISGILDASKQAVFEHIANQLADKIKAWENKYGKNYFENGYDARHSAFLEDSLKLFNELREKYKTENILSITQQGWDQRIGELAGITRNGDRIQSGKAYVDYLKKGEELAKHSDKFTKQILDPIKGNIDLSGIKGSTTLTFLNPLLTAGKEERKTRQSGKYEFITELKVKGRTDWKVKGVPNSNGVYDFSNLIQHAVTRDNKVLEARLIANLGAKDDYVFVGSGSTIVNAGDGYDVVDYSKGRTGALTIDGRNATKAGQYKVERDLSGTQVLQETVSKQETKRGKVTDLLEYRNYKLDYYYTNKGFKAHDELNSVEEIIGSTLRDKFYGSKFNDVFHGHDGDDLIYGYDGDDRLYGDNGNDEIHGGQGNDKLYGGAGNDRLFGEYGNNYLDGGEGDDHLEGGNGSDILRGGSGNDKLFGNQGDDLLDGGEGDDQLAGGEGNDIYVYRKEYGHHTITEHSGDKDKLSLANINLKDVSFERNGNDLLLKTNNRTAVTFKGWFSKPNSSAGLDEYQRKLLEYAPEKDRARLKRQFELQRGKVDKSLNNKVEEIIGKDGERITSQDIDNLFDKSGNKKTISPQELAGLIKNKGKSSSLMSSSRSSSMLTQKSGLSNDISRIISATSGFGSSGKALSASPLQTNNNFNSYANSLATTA
Sequence of integrin alpha M cytoplasmic domain (Homo sapiens) (P11215 1129-1152): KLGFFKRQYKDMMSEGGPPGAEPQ
Sequence of integrin beta 3 cytoplasmic domain (Homo sapiens) (P05106 742-788): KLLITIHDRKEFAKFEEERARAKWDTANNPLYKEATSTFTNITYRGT
Sequence of integrin alpha L cytoplasmic domain (Homo sapiens) (P20701 1112-1170): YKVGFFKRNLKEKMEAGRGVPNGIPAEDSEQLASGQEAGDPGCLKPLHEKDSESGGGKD
Sequence of integrin alpha X cytoplasmic domain (Homo sapiens) (P20702 1129-1163): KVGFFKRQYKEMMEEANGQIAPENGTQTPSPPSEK
Sequence of HlyA (P08715 whole entry): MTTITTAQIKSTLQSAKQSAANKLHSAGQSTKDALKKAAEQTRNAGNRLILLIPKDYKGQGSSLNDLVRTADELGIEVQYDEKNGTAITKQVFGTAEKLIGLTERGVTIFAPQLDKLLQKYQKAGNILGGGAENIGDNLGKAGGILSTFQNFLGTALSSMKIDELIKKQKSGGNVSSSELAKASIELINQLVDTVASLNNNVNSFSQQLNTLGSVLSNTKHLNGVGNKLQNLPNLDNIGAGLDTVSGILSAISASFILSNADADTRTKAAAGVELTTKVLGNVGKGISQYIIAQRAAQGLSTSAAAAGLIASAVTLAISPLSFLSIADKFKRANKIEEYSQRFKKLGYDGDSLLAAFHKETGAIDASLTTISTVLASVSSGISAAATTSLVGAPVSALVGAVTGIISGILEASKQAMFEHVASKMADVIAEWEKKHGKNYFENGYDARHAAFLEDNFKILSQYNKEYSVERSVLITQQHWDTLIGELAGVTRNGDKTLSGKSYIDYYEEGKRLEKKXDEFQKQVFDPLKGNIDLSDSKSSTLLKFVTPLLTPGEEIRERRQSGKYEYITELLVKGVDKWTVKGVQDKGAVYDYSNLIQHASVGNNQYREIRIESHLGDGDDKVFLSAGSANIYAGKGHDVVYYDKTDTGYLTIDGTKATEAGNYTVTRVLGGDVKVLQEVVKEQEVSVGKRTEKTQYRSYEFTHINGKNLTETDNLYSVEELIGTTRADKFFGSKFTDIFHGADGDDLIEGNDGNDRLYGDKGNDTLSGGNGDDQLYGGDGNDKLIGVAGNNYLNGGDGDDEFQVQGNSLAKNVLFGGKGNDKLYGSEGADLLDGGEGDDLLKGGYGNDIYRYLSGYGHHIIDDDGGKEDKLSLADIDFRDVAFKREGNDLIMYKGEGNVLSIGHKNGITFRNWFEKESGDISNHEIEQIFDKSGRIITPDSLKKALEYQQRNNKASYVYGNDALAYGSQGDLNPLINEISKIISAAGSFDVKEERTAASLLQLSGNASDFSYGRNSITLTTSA
Sequence of integrin beta 2 cytoplasmic domain (Homo sapiens) (P05107 724-769): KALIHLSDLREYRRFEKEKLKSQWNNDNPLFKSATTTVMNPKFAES

Regarding HlyA (from UniProt P08715), in data set [1], the Kd – broadly, the concentration at which binding is half-saturated – was 610 nM.

With LtxA (from UniProt P16462), the Kd in data set [2] was 15 nM; in data set [3] it was 230 nM; in data set [4], 4.2 nM; in data set [5], 400 nM; in data set [6], 180 nM.
